Laboratory results taken from patent US10883116B2, “Transduction buffer” (Koninklijke Nederlandse Akademie van Wetenschappen, priority 2013, dated 2021).
Entries after “also recorded” stand apart in the source; their conditions may differ. Values belong to the molecule of their own block, whether it stands above or below them.

How the values were obtained:
KBM7 cells [1] = format: cell-based; conditions: human, 250 mM
Description: (B) BrdU incorporation rate was determined in KBM7 cells incubated with osmocytosis buffer with NDSB-201 or GABA at different time points. Untreated cells were considering as 100% of BrdU incorporation.
Next we optimized the transduction media to allow the transduction of recombinant Cas9. […] For this reason we developed a “Cas9-adapted transduction protocol” (the “fourth protocol”) with a final osmolality of 1250 mOsmol/Kg and a concentration of 250 mM of NDSB-201 (transduction compound #01) or other transduction compounds selected from the FIGS. 7A-7D. We expected that higher osmolalities and NDSBs will induce faster protein transduction but also could possibly increase the cellular toxicity. To characterize this new transduction conditions we measured BrdU incorporation upon high osmolarity (1250 mOsm/Kg) transduction at different short time points, in KBM7 cells.

[2] = tested on: murine embryonic fibroblasts (MEFs); test: β-Lactamase protein transduction assay (CCF2-AM), protocol 3/700
Text: To further characterize the protein transduction process we analyzed the effect of time, osmolality, transduction compound concentration and protein concentration on the transduction process. To this end, we set up a β-Lactamase protein transduction assay and measured intracellular β-Lactamase activity using CCF2-AM, an intracellular fluorescent β-Lactamase substrate that changes emission wavelength when cleaved by the enzyme (FIG. 3A). […] While we used the immortalized COS7 cell line in our initial studies, we wanted to know if the compound-mediated protein transduction would also allow the transduction of protein into primary cells. We therefore transduced murine embryonic fibroblasts (MEFs) with β-Lactamase (1 μM final concentration), using NaCl-adjusted hypertonic media (700 mOsm/Kg) and 25 mM NDSB201. β-Lactamase activity was set at 1 at the start of the experiment and relative intracellular β-Lactamase activity was measured as a function of time (FIG. 3B, bars). As a control, β-Lactamase transduction was measured in isotonic media in the presence of 25 mM NSDB201 (FIG. 3B, open circles).
β-lactamase transduction was performed using the 3/700 protocol above in murine embryonic fibroblasts (MEFs). A black, clear-bottom 96 well-plate was coated with 0.15 mg/ml of Poly-D-Lysine for 1 h at room temperature. 12,000 MEFs cells were seeded per well in MEF media without antibiotics. Next day, cells were transduced using the transduction protocol 3/700 as describe above. […] Na- or Rb-salt was added to adjust the final tonicity to 700 mOsm/Kg. […] After 3 hrs., the transduction media was replaced by fresh MEF media for 30 min. Subsequently, cells were washed once with phenol-red-free DMEM. β-lactamase activity was measured using the CCF2-AM kit following the manufacturer's instructions. In brief, 120 μl of CCF2-AM loading media was added per well and cells were incubated for 1 h at room temperature. Cells were washed two times with DMEM phenol-red free and incubated for an additional 30-60 min. Fluorescence emission was measured at […] and 510 nm following manufacturer's instructions. All tests were done in triplicate.

KBM7 cells [3] = test: CRE recombinase reporter in KBM7 cells, Cas9-adapted transduction buffer; format: cell-based, human; conditions: 1250 mOsmol/Kg, 250 mM GABA
Description: (C) Top panel. Schematic depiction of the CRE recombinase reporter. […] Untransduced cells express Red fluorescent protein. […] Bottom panel. KBM7 cells transduced with CRE protein with osmocytosis media at 1250 mOsmol/Kg with 250 mM GABA (compound #20) during 60 minutes. Upper panels represent fluorescent pictures in green and red channel. Bottom panels represent FACS plots showing in x axes green fluorescence and in y axes red fluorescence or frequency of events. Percentages of events are depicted in the corresponding area.
To further test the duration of the transduction with the modified transduction buffer, we performed a Cre recombinase protein transduction at 1250 mOsmol/Kg and 250 mM GABA at different time points and measured the percentage of cells with successful cre-mediated reporter activation as well as BrdU incorporation as a measure of cell proliferation and survival. Under these conditions, the optimal transduction time based on cell survival and Cre transduction was around 60 minutes. At those time points, one round of Cre protein transduction gave an 80% of GFP positive KBM7 cells. And two subsequent rounds of Cre protein transduction yielded 94% positive KBM7 (FIG. 19C). A second round of protein transduction didn't affect cell survival rate.

[4] = tested on: GFP-expressing murine embryonic fibroblasts (MEFs); test: Macropinocytosis mediated uptake of TMR-dextran and BSA, confocal microscopy; format: cell-based; conditions: 100 μM EIPA 30 min before and during transduction
Description: To assess if the transduction buffer would permit the simultaneous transduction of proteins and large molecules, we analyzed macropinocytosis mediated uptake of TMR-dextran (red) and fluorescently labeled BSA protein (cyan) by GFP-expressing murine embryonic fibroblasts (MEFs). In brief, MEFs expressing eGFP protein (green) were incubated with 5 μg/ml of high molecular weight TMR-Dextran (red) and 1 μg of BSA-Alexa-647 (far-red) in 1× transduction media (protocol 700/3) for 30 min. Subsequently, cells were washed twice in 1× transduction buffer. Finally, cells were maintained in 1× transduction buffer and immediately analyzed by confocal microscopy. Dextran and BSA uptake was inhibited by incubating cells with 100 μM Ethylisopropylamiloride (EIPA) 30 min before and during transduction procedure.

[5] = tested on: MEFs cells expressing GAL3-GFP protein; test: GAL3-GFP macropinosome vesicle leakage reporter assay; conditions: 700/3 conditions
[6] = tested on: human induced pluripotent stem cells (iPSCs); test: CRE recombinase dsRed-to-eGFP reporter, flow cytometry
murine ESCs = test: ESC proliferation by cell counting after CRE transduction; format: cell-based; conditions: with or without Tat-HA2 fusion peptide
Text: Top & bottom graph. After 2 days, transduced (white circle) or untransduced (grey bars) cells were counted every day to make cell proliferation curves.
Untransduced cells were used as a control.

[7] = tested on: human iPSC-derived glial cells and neurons; test: CRE reporter in human iPSC-derived glial cells and neurons; format: cell-based; conditions: 5 μM CRE
Text: (§1) A similar strategy of CRE-recombinase mediated red-to-green reporter shift as described above, was utilized to assess the transduction of murine and human neurons, glia and neural stem cells. FIG. 10A depicts a schematic representation of the assay. […] Since the fluorescent reporter construct was introduced into the iPSC-derived glial cells and neurons using lentiviral infection, cells likely incorporated multiple copies of this reporter.

murine neurospheres = test: CRE reporter in murine neurospheres; format: cell-based; conditions: CRE protein transduction, protocol 12/500
Text: as §1
Neurospheres were transferred to a 96 well plate with 80 μl of the neuronal stem cells media. Right after, 20 μl of CRE in 5× Transduction buffer was added to cell and mixed carefully.

[8] = tested on: murine embryonic stem cells (mESCs); test: CRE recombinase Lox-Stop-Lox-eGFP reporter, flow cytometry

β-lactamase transduction activity when combined with reference compound #01 (reference set at 100%) ([2]; equimolar with NDSB201 (#01), 12.5 mM each, total 25 mM, 3 hours, 700 mOsm/Kg): largely unchanged
Molecule: NCCCC(=O)O [Compound #20, gamma-aminobutyric acid]
cell survival (BrdU incorporation) in KBM7 (KBM7 cells [1]): much better survival than NDSB-201 | optimal transduction time based on cell survival and Cre transduction (KBM7 cells [3]): around 60 minutes

effect on protein transduction in the presence of FGF and PDGF ([2]; 700 mOsm/Kg, 25 mM NDSB201): completely blocked protein transduction
Molecule: CCN(c1nc(N)c(C(=O)N=C(N)N)nc1Cl)C(C)C [EIPA, 5-(N-ethyl N-isopropyl)-amiloride, reference compound]
effect of endocytic pathway inhibitor on protein transduction ([2]; 3 hours, 1 μM β-lactamase, 700 mOsm/Kg NaCl, 25 mM NDSB201): strongly inhibited; also recorded: completely inhibits protein transduction | effect on Dextran and BSA transduction [4]: inhibited | Gal3-GFP localisation to macropinocytic vesicles (vesicle leakage) [5]: did not relocalize to vesicles

B1: CRE protein: recombinant CRE recombinase protein (protein, UniProt P06956 1-343, looked up)
Recombinase cre: MSNLLTVHQNLPALPVDATSDEVRKNLMDMFRDRQAFSEHTWKMLLSVCRSWAAWCKLNNRKWFPAEPEDVRDYLLYLQARGLAVKTIQQHLGQLNMLHRRSGLPRPSDSNAVSLVMRRIRKENVDAGERAKQALAFERTDFDQVRSLMENSDRCQDIRNLAFLGIAYNTLLRIAEIARIRVKDISRTDGGRMLIHIGRTKTLVSTAGVEKALSLGVTKLVERWISVSGVADDPNNYLFCRVRKNGVAAPSATSQLSTRALEGIFEATHRLIYGAKDDSGQRYLAWSGHSARVGAARDMARAGVSIPEIMQAGGWTNVNIVMNYIRNLDSETGAMVRLLEDGD
cells shifted to eGFP expression ([6]; 5 μM CRE protein, 12 hours at 500 mOsm/Kg, single transduction): 64% | eGFP cells ([6]; double CRE protein transduction, without Tat-HA2 fusion peptide): 78% | ESC proliferation after two rounds of CRE protein transduction (murine ESCs): did not affect ESC proliferation | eGFP reporter activation [7]: efficient activation of the eGFP reporter | GFP positive KBM7 cells (KBM7 cells [3]; one round, around 60 minutes): 80% | positive KBM7 (KBM7 cells [3]; two subsequent rounds): 94% | eGFP reporter activation (murine neurospheres): efficient activation of the eGFP reporter | GFP+ ESCs ([8]; 5 μM CRE, two sequential rounds, 12 hrs each at 500 mOsm/Kg with glycerol and glycine): 79% | GFP-positive mESCs ([8]; Okada method (hypertonic/hypotonic), 5 μM CRE-recombinase protein): 6%
